{"source": "patent US20190345255A1", "molecules": {"B1": {"name": "Kt-IgM-8 (antibody, V domains shown)", "VH": "QIQLVQSGPELKKPGETVKISCKASGYTFTTYGMSWVKQAPGKGLKWMGWINTYSGVPTYADDFKGRFAFSLETSASTAYLQINNLKNEDTATYFCARHYYGGAYWGQGTLVTVSA", "VL": "QIVLTQSPAIMSASPGEKVTMTCSASSSVSYMHWYQQKSGTSPKRWIYDTSKLASGVPARFSGSGSGTSYSLTISSMEAEDAATYYCQQWSSNPLTFGAGTKLELK"}}, "key": {"[1]": {"biological_target": "Mouse recombinant MGL2 (macrophage galactose binding lectin 2) (mouse)", "assay": "competition ELISA on MGL2-coated plate; 10 µg/mL Tn-BSA against 10 µg/mL biotinylated Tn-PS A1 probe 25a (a polysaccharide) as competitor"}, "[2]": {"biological_target": "Mouse recombinant MGL2 (macrophage galactose binding lectin 2) (mouse)", "assay": "competition ELISA on MGL2-coated plate; 10 µg/mL Tn-BSA against 10 µg/mL biotinylated TF-PS A1 probe 25b (a polysaccharide) as competitor"}, "[3]": {"biological_target": "Tn-BSA (Tn antigen conjugated to bovine serum albumin) (bovine) (UniProt P02769)", "sequence (P02769 25-607 limits assumed, form in doubt)": "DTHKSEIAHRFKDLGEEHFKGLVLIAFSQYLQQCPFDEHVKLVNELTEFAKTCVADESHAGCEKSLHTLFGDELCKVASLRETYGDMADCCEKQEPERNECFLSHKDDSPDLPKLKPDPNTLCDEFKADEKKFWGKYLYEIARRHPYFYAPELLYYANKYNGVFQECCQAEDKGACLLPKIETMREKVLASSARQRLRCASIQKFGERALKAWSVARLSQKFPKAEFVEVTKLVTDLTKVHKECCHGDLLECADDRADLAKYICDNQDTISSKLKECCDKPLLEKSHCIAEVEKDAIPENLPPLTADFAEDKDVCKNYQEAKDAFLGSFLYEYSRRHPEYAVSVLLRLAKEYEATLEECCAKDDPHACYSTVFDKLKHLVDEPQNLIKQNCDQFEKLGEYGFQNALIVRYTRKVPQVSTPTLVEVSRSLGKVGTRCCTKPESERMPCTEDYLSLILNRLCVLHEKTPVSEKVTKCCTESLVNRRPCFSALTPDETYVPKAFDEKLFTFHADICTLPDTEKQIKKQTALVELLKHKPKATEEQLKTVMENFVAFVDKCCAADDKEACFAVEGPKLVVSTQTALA", "assay": "ELISA titration of purified IgM, Tn-BSA coated plates"}}}
{"molecule": "Tn-BSA (Tn antigen conjugated to bovine serum albumin) (from UniProt P02769 25-607)", "values": [{"measurement": "percent inhibition", "setting": "[1]", "result": 44, "unit": "%"}, {"measurement": "percent inhibition", "setting": "[2]", "result": 64, "unit": "%"}]}
{"molecule": "B1", "values": [{"measurement": "optical density (O.D.) at 0.3 µg/mL antibody", "setting": "[3]", "result": "> 0.2", "unit": "O.D."}]}
